Reference: patent EP4019090A1
Numbering of substitutions follows the chain as printed.

Experiments:
[1] = target: Biotinylated IL-4R (human) (UniProt P24394); assay: competitive ELISA; IL-4 coated, biotinylated IL-4R preincubated with scFv; reference dupilumab
Human IL-4R-Fc (human) [2] = target: Human IL-4R-Fc (human) (UniProt P24394); assay: SPR
[3] = target: Biotinylated IL-4R (human) (UniProt P24394); assay: competitive ELISA; IL-4 coated, biotinylated IL-4R preincubated with scFv, streptavidin-HRP
Human IL-4R-Fc (human) [4] = target: Human IL-4R-Fc (human) (UniProt P24394); assay: SPR (Biacore T200); human IL-4R-Fc captured via anti-human IgG-Fc, scFv as analyte; 1:1 model

Human IL-4R-Fc (human), sequence (P24394 26-232 limits assumed): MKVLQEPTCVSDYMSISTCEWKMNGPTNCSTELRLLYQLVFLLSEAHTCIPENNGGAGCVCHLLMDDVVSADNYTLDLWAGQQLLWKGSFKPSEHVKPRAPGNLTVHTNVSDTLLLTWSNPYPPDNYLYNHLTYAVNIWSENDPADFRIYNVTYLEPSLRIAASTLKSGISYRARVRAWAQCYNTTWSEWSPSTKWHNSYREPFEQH
Biotinylated IL-4R (human), sequence (P24394 26-232 limits assumed): as above

B1: PRO1517 (scFv, from another filing)
scFv: DIQMTQSPSSLSASVGDRVTITCQASEDIESYLAWYQQKPGKAPKLLIYRASTLAYGVPSRFSGSGSGTDFTLTISSLQPEDFATYYCLGSSYSTGSNIFGTGTKVTVLGGGGGSGGGGSGGGGSGGGGSEVQLVESGGGLVQPGGSLRLSCAASGFSSSSAHYMCWVRQAPGKGLEWIGCIYAGSRGSTYYASWAKGRFTISRDNSKNTVYLQMNSLRAEDTAVYYCARAAFVNRGVSWIWPYYFSLWGQGTLVTVSS
- rel. IC50 (IC50, dupilumab/IC50 test sample) [1]: 3.46
- Kd (Human IL-4R-Fc (human) [2]): < 500 pM
- IC50 [3]: 0.54 ng/mL

B2: PRO1535 (scFv, from another filing)
scFv: B1 scFv with A43P, V132S, G180A, R204K, Y227F
- Kd (Human IL-4R-Fc (human) [4]): 19.9 pM
- koff (Human IL-4R-Fc (human) [4]): 5.42e-05 s⁻¹
- kon (Human IL-4R-Fc (human) [4]): 2.72e+06 M⁻¹ s⁻¹
- rel. IC50 (IC50, dupilumab/IC50 test sample) [1]: 0.98
- Kd (Human IL-4R-Fc (human) [2]): < 500 pM
- IC50 [3]: 1.92 ng/mL
